For orientation: stoichiometry N means the number of molecules, sites or subunits per partner or assembly.

Experimental findings from PMC3405546 (Circulation Research, 2012) are described below.

Series [1] concerns the target glutathione s-transferase (GST) tagged cyclin E (human, UniProt P24864 1-410). The series is described as follows: cross-linking.
The series “cross-linking” concerns the molecule itself. The series is described as follows: cross-linking.

glutathione s-transferase (GST) tagged cyclin E, sequence (P24864 whole entry): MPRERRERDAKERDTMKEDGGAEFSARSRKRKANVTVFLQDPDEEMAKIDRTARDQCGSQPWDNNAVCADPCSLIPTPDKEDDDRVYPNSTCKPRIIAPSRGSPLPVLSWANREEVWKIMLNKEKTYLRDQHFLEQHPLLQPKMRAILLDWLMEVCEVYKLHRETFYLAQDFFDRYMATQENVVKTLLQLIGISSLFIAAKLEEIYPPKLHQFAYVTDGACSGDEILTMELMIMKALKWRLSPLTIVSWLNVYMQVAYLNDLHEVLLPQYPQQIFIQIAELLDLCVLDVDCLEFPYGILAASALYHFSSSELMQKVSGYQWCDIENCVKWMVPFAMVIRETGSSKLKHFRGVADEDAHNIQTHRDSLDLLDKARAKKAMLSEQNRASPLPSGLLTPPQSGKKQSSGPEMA

B1: Cx43^CTMK4D (Cx43 C-terminus, phospho-mimetic Ser>Asp), purified (domain or fragment, rat, UniProt P08050 236-382, looked up)
chain: VKDRVKGRSDPYHATTGPLDPSKDCGDPKYAYFNGCSSPTAPLDPMDPPGYKLVTGDRNNSSCRNYNKQASEQNWANYSAEQNRMGQAGSTISNSHAQPFDFPDDNQNAKKVAAGHELQPLAIVDQRPSSRASSRASSRPRPDDLEI
B1: the “stoichiometry N” value was determined as 2 Cx43^CTMK4D per cyclin E in series [1] and 2 in “cross-linking”.
